Reference: US8236761B2, “C-Met receptor regulation by angiotensin IV (AT4) receptor ligands” (Washington State University Research Foundation, priority 2006, dated 2012)
Non-standard residues stand in square brackets, D forms with d. No end group written: not given here. Nle = CCCC[C@H](N)C(=O)O

Assays:
c-Met = c-Met (Homo sapiens, UniProt P08581); test: Immunoprecipitation/Western blot of HGF-dependent c-Met and Gab1 phosphorylation and association in HEK293 cells; assay type: cell-based; design: host or cells: HEK293
Procedure: (FIG. 5A) HEK293 cells were treated for 10 minutes with HGF at indicated concentrations. Lysates were immunoprecipitated (IP) with anti-c-Met antibody (DO-24) and immunoblotted (IB) with anti-c-Met or anti-phospho-tyrosine (06-427) antibody. (FIG. 5B) HEK293 cells were treated for 10 minutes with HGF and/or Norleual. Lysates were IP with anti-c-Met (DO-24) and IB with anti-c-Met (DQ-13) or anti-phospho-tyrosine (HAM 1676). (FIG. 5C) HEK293 lysates were IP with anti-c-Met (DO-24) and IB with anti-Gab1. (FIG. 5D) HEK 293 lysates were IP with anti-Gab1 and IB with anti-Gab1 or anti-phospho-tyrosine (HAM 1676). (FIGS. 5E, 5F, 5G) Relative amounts (normalized to % total c-Met in IP) of quantified IP/IB band intensities for control, 110 pM HGF-, 110 pM HGF and 20 pM Norleual-, and 20 pM Norleual-treated HEK293 cells for phospho-c-Met (FIG. 5E, n=4), phospho-Gab1 (FIG. 5F, n=4), and c-Met associated Gab1 (FIG. 5G, n=3). Error bars indicate ±SD.
HEK293 cells were treated for 10 minutes with HGF and/or Norleual at the indicated concentrations. Lysates were IP with anti-c-Met (DO-24, Millipore/Upstate, Billerica, Mass.) and IB with anti-c-Met (DQ-13, Millipore/Upstate) or anti-phosphotyrosine (HAM1676, lot JLB03, R&D Systems, Inc., Minneapolis, Minn.).
Immunoprecipitation and Western blotting. Cells were serum starved for two hours in DMEM before treatment. Cells were harvested using RIPA lysis buffer (Upstate Biotechnol. Inc., Lake Placid, N.Y.) with phosphatase inhibitor cocktails 1 and 2 (Sigma, St Louis, Mo., USA). Protein concentration was determined using the BCA assay (Pierce, Rockford, Ill., USA). Lysates were incubated with antibody overnight at 4° C. Immunoprecipitation controls received mouse non-specific Ig (Upstate). Proteins were captured with protein-A agarose (Upstate) and were washed with PBS. Proteins were resolved using SDS-PAGE electrophoresis (Criterion, BioRad, Hercules, Calif., USA), transferred to nitrocellulose, and incubated with appropriate antibodies. Proteins were visualized using the Supersignal West Pico Chemiluminescent Substrate system (Pierce). The film images were digitized and analyzed using TotalLab® software (AmershamPharmacia/GE HealthCare, Piscataway, N.J.).
Whether the interaction of Norleual with the c-Met receptor had functional consequences regarding c-Met signaling was next investigated by determining whether Norleual could alter the phosphorylation status of cellular protein tyrosine phosphate (FIG. 4) and more specifically, of c-Met (i.e., c-Met activation), and also whether Norleual could modulate Gab1 association with c-Met. Human embryonic kidney HEK293 cells were activated by HGF in the presence or absence of Norleual. Solubilized membranes were immunoprecipitated (IP) with an anti-c-Met antibody and immunoblotted (IB) for total c-Met, anti-phospho-tyrosine to detect the activated form of c-Met, and anti-Gab1 to detect c-Met/Gab1 association. […] To confirm these findings, treated HEK293 lysates were precipitated with anti-Gab1 and blotted for total Gab1 and phospho-Gab1, its activated form. Again, Norleual inhibited HGF-induced Gab1 phosphorylation (FIGS. 5D, […]).

B16-F10 melanoma cells = test: In vivo pulmonary B16-F10 melanoma metastasis model; design: species or system C57BL/6 mice; details: tail vein inoculation, IP 50 μg/kg/day, fourteen days, melanin absorbance
Procedure: (FIG. 13A) C57BL/6 mice were inoculated subcutaneously with B16-F10 cells. Control or Norleual-containing slow release Elvax pellets were implanted inter-muscularly. Tumors were measured with digital calipers and tumor volumes were calculated (n=6), error bars indicate ±SD. (FIG. 13B) 400,000 B16-F10 cells, treated in suspension with either Norleual at 10^−11 M or PBS as a vehicle control, were injected into the tail vein of C57BL/6 mice. Mice received IP injections of Norleual (50 μg/kg/day) or PBS vehicle control. After fourteen days, lungs were removed and the absorbance of melanin was used to quantify metastasis; bars show (left to right) graft recipients treated with vehicle only, Norelual treated graft recipients, and ungrafted age-matched control. Error bars indicate±SEM, with n=5 and *p<0.05. (FIG. 13C) Photo of representative lungs from vehicle-only treated (controls, “Norleal −”) and Norleual treated (“Norleual +”) grafted mice.
In vivo metastasis. Six to eight month old C57BL/6 mice were injected with 400 000 B16-F10 cells in 200 μl PBS by tail vein injection. Two to three weeks later, mice were anesthetized and lungs were perfused with PBS and removed. […] The supernate was transferred to a 96 well plate and melanin absorbance at 410 nm was measured using a plate reader (Biotek Synergy2, Winooski, Vt., USA). […]

HUVECs = test: Extracellular matrix related gene microarray in HUVECs; assay type: cell-based, human; details: 8 days, 1 pM
Procedure: Angiotensin-like factors as candidate c-Met receptor ligands were tested for the ability to modulate expression of extracellular matrix-related proteins in human umbilical vein endothelial cells (HUVECs) by gene microarray. Briefly, HUVECs were treated for 8 days in the presence or absence of test compounds at a concentration of 1 pM; Norleual (Compound 2, SEQ ID NO:43) was used as an exemplary angiotensin-like factor. RNA was harvested and transcriptional activities of 96 extracellular matrix related genes were assessed using gene microarrays.

Sequence of c-Met (P08581 308-1390 limits assumed): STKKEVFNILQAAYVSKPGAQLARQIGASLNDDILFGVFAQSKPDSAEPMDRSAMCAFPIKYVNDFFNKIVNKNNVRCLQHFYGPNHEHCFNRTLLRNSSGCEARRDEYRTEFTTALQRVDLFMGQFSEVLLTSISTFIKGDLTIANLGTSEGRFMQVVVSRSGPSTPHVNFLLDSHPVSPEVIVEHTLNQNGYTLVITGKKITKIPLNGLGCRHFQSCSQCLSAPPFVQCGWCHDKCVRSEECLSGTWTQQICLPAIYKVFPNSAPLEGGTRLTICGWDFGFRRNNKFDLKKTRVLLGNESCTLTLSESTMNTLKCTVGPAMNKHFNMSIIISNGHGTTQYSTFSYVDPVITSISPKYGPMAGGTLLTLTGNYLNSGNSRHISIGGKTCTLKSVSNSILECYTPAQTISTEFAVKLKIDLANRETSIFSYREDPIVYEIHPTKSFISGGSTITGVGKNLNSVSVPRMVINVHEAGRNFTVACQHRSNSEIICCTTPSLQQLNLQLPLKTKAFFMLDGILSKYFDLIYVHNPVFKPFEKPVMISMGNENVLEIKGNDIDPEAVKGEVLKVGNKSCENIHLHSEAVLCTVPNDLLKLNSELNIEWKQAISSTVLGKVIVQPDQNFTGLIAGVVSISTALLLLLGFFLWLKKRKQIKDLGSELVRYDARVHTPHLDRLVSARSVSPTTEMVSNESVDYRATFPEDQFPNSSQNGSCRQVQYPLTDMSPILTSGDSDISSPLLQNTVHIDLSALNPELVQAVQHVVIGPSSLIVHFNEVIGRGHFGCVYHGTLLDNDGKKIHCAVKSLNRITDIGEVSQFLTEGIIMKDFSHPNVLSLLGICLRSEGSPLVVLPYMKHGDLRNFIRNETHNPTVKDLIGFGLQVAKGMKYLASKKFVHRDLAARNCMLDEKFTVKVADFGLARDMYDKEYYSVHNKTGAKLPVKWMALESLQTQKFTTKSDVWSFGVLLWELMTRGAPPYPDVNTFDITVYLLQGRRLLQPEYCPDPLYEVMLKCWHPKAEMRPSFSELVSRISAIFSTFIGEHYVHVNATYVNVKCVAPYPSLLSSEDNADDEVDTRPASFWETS
Sequence of c-Met (P08581 25-307 limits assumed): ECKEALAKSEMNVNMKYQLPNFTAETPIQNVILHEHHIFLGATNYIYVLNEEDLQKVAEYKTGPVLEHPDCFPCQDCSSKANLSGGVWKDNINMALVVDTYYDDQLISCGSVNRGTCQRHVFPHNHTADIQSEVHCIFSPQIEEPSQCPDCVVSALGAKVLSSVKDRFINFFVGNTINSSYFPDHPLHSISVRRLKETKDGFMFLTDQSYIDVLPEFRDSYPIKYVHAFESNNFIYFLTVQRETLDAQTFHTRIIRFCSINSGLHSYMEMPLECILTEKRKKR

Substance: Nle-Tyr-Leu-ψ-His-Pro-Phe ([Nle]YLHPF; also: reduced peptide bond psi(CH2NH2) between Leu and His) [Norleual]
- HGF-initiated association between Gab1 and c-Met (c-Met; HEK293 cells): significantly reduced
- c-Met phosphorylation, compound applied alone (c-Met; HEK293 cells, 10 minutes, no HGF): did not alter
- HGF-dependent Gab1 phosphorylation (IP anti-c-Met) (c-Met; HEK293 cells, Norleual 20 pM, 110 pM HGF): significantly reduced
- HGF-dependent c-Met phosphorylation (c-Met; HEK293 cells, Norleual 20 pM, 110 pM HGF, 10 minutes): significantly reduced
- HGF-induced Gab1 phosphorylation (IP anti-Gab1) (c-Met; HEK293 lysates precipitated with anti-Gab1): inhibited
- B16-F10 lung metastasis (B16-F10 melanoma cells): dramatically inhibited
- Change in gene expression versus control: CD44, catenin, catenin β, catenin δ1, MMP-1, PAI-1, thrombospondin 1, integrin α-2 (HUVECs): at least two fold
